Experimental data taken from patent publication US20230167198A1 (University of California, published 2023).

Tests used:
[1] = target: T1, K(IV2)5 recombinant apolipoprotein(a) construct (5 copies of KIV2) (UniProt P08519 131-700, limits assumed); assay: dot-blot, pattern duplicated by western blot
T1 construct: domain: KIV2, 5 copies
T1 sequence (looked up): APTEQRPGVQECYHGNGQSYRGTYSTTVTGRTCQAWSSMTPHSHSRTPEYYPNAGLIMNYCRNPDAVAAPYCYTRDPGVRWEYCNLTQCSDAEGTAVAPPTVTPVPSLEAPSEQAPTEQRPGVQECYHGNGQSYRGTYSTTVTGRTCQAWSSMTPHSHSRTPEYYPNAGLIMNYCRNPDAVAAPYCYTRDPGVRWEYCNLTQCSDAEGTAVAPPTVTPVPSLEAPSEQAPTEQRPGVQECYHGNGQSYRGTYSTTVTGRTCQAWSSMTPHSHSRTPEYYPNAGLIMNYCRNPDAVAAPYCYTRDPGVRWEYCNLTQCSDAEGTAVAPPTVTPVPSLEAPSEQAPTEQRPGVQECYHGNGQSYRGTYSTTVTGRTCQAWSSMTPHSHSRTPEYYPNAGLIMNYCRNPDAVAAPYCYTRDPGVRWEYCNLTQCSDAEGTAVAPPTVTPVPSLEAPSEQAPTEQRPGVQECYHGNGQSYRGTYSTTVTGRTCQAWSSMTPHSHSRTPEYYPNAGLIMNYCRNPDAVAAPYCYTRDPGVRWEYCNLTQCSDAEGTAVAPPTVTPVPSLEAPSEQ
Description: (§1) Lp(a) and array of recombinant apo(a) constructs were used to test LPA-KIV₉ binding by (A) Dot-blot (25 ng protein/dot) and (B) western blot (WB) under reducing conditions (250 ng protein/well).
(§2) Imunoblot analyses. An array of apo(a) constructs was subjected to gel electrophoresis and immunoblot analysis with LPA-KIV9. Briefly, samples (250 ng/well) were loaded in reducing loading buffer and run on a 4-12% Bis-Tris gel (Life Technologies). Gels were transferred to a PVDF membrane (Life Technologies), and the membranes were blocked with 5% nonfat dry milk in Tris-buffered saline and Tween (TBST) for 1 hour before incubation with primary antibodies (1 μg/ml in 1% BSA-TBST) overnight at 4° C., followed by incubation with secondary antibodies conjugated with horse-radish peroxidase (Cell Signaling Technology, Beverly, Mass.) for 1 hour at room temperature and by detection with KPL-TMB membrane peroxidase substrate (SeraCare, Milford, Mass., USA). A dot-blot was also performed with antigens in PBS (25 ng/dot) loaded directly on the membrane. Blocking and immunoblotting were done as described above and detected by a Super Signal West Dura substrate (Thermo Fisher Scientific, Waltham, Mass.) and an OptiChem HR imaging system (UVP, Upland, Calif.).
(§3) Determination of the binding domain of LPA-KIV₉ on apolipoprotein(a). […]

[2] = target: T2, KIV10-P recombinant apolipoprotein(a) construct (UniProt P08519 1605-2040, limits assumed); assay: dot-blot, pattern duplicated by western blot
T2 construct: domain: KIV10 to the protease domain
T2 sequence (P08519 1605-2040 limits assumed): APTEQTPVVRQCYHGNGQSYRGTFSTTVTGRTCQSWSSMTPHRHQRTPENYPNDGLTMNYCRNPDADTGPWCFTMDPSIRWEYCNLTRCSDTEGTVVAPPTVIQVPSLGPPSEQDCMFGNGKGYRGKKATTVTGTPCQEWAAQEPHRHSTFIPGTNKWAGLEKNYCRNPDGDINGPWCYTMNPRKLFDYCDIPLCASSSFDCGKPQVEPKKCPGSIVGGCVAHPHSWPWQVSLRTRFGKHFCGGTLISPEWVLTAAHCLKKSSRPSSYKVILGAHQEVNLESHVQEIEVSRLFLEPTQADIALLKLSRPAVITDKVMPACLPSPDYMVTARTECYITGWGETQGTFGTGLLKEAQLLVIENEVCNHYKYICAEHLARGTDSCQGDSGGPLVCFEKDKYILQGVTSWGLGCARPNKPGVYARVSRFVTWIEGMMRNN
Description: as §1, §2, §3

[3] = target: T3, K(IV2)3 recombinant apolipoprotein(a) construct (3 copies of KIV2) (UniProt P08519 131-472, limits assumed); assay: ELISA of hybridoma subclones on coated antigen
T3 construct: domain: KIV2, 3 copies; also called apolipoprotein(a) KIV2
T3 sequence (looked up): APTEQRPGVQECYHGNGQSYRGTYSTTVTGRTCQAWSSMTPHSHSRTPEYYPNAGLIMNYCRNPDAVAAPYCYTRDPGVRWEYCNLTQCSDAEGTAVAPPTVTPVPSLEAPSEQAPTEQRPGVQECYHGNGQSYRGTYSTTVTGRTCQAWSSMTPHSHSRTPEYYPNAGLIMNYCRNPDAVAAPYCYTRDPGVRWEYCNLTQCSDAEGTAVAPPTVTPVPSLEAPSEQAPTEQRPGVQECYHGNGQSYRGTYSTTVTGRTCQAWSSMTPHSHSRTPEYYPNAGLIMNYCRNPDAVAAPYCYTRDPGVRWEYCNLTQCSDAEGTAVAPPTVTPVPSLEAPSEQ
Description: (§4) (A) Mouse plasma titers of Lp(a)-specific antibodies: Following the first boost target-specific antibody titers were determined by ELISA against immobilized antigen by screening serial dilutions of the serum. The graph represents the mean of technical triplicates measurements at 1:400 plasma dilution. (B) Hybridoma screening: 576 hybridoma colonies were collected and expanded. Supernatants were screened by ELISA against the target antigen Lp(a) and counter-screened against antigen K(IV₂)₃. […] (C) Limiting dilution: To ensure monoclonality, 10 positive colonies were subjected to 2 cycles of limiting dilutions, using semi-solid gel without hypoxanthine-aminopterin-thymidine medium. Collected subclones were tested by ELISA. Colony #1 found to specifically binds Lp(a), but not to plasminogen and KIV₂. […] Colony 1 was tested 5 times and designated LPA-KIV₉. (D) Purified LPA-KIV₉ binding to Lp(a) (5 ug/ml) was tested by ELISA. […] Mean±SD.
(§5) ELISA with direct antigen plating to assess binding of hybridoma generated antibodies. […] Bound IgG antibodies were detected using an anti-mouse IgG-alkaline phosphatase (ALP) conjugate (Sigma-Aldrich, St. Louis, Mo.), Lumi-Phos 530 substrate (Lumigen, Southfield, Mich.) and a luminescence plate reader (BioTek, Vermont).

[4] = target: T4, human plasminogen (R&D, Minneapolis, Minn.) (human, UniProt P00747 20-810); assay: ELISA of hybridoma subclones on coated antigen
T4 construct: Bought reagent
T4 sequence (P00747 20-810 limits assumed): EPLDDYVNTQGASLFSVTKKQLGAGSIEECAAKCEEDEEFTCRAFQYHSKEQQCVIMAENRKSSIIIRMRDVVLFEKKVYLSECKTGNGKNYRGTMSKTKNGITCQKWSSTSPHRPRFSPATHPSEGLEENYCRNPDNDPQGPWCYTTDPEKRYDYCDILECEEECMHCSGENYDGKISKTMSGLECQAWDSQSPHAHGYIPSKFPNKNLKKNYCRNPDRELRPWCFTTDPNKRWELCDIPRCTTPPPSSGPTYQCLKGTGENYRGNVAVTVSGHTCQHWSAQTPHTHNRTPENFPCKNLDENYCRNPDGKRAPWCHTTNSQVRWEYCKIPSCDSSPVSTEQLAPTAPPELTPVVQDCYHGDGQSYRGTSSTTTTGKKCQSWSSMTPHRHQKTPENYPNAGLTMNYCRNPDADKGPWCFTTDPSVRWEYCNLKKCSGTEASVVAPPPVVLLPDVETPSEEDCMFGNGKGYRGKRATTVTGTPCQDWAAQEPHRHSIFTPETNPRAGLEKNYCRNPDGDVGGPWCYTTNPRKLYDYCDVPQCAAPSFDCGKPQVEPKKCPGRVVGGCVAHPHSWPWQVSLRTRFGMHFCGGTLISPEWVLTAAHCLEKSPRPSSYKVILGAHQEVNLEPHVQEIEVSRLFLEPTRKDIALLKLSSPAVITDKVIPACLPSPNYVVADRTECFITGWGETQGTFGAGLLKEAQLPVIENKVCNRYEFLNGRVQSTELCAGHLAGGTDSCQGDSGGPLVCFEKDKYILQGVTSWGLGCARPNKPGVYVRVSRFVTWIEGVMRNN
Description: as §4, §5

B1: LPA-KIV9 murine monoclonal antibody (antibody, IgG1, V domains shown)
VH: QVQLQQSGAELVRPGASVKLSCKALGYTFTDYELHWLKQTPVHGLEWIGAVHPGSGGSAYNQNFKDKATLTADKSSSTAYMELSSLTSEDSAVYYCTREGPFYWGQGTTLTVSS
VL: DVVMTQTPLSLPVSLGDQASISCRSSQSLVHSNGNAYLHWYLQKPGQSPKLLIYKVSNRFSGVPDRFSGSGSGTNFTLKISRVEAEDLGIYFCSQSTHVPLTFGAGTKLELK
notes: constant regions are not; also called Colony #1; Colony 1
binding result [1]: no binding (tested: 25 ng/dot) | binding result [2]: no binding (tested: 25 ng/dot) | binding result [3]: no binding | binding result [4]: no binding
